Laboratory results reported in patent publication US20030220245A1.
Blank lines part the entries; values can stand above or below the molecule they belong to. No end group written: not given here.

Experiments:
[1] = system: T1, GCY-DLys-N-DArg-DCG (plasmin stable peptide)
T1 sequence: GCYKNRDCG

[2] = system: T2, GCYKNRDCG (plasmin sensitive peptide)
T2 sequence: GCYKNRDCG

[3] = biological target: receptors that recognize the sequence GRGDSPG; test: cell-based or functional assay

Molecule: plasmin
- degradation of PEG-triacrylate/peptide gel by 0.2 units of plasmin in 200 microliters, 37 C [1]: The DLys, DArg configuration gel has not been shown to degrade by plasminolysis.
- degradation of PEG-triacrylate/peptide gel by 0.2 units of plasmin in 200 microliters, 37 C [2]: The L-Lys, L-Arg configuration of the peptide was readily degraded by the enzyme. In one case, after 6 hours no gel remained.
- peptide degradation by plasmin, analytical C18 HPLC, plasmin at 1/1000 the peptide concentration, 37 C [2]: most of the GCYKNRDCG peptide was degraded in approximately one hour at 37 °C

- adhesion and spreading of human foreskin fibroblasts on conjugate addition PEG gels carrying the peptide on one of every 12 acrylates, 6 hours after seeding [3]: 50%
B1: … (RGD-containing adhesion peptide) (peptide)
peptide: GC(PEG acrylate)GYGRGDSPG
